Reference: patent publication US20110263014A1, “Cleavage of Nanog by Caspases Mediates the Differentiation of Embryonic Stem Cells” (BAYLOR COLLEGE OF MEDICINE, priority 2008, published 2011)

Tests used:
caspase-9 = molecular target: T1, caspase-9 (Homo sapiens, UniProt P55211); test: cleavage of immunoprecipitated mNanog by recombinant caspase-9; type: biochemical; settings: protein immunoprecipitated from ES cells
T1 sequence (P55211 1-416): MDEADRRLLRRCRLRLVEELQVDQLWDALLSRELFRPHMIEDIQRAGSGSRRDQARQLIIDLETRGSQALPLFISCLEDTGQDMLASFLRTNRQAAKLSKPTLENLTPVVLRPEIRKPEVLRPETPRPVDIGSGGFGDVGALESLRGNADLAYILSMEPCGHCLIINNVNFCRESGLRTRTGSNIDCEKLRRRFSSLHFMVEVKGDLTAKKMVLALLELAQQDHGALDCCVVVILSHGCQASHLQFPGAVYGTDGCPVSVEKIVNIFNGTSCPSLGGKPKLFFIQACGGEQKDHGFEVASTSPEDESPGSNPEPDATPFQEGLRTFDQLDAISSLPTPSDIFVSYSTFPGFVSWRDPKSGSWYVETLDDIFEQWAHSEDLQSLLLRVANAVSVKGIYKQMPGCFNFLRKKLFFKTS

mouse ES cells = test: colony formation at clonal density, alkaline phosphatase staining; type: cell-based; settings: transfected mouse ES cells, 5000 cells/cm^2, with or without LIF, 3 days

B1: D67G mNanog: caspase cleavage-resistant mutant of mouse Nanog, mutation at position 67 (protein)
chain: MSVGLPGPHSLPSSEEASNSGNASSMPAVFHPENYSCLQGSATEMLCTEAASPRPSSEDLPLQGSPGSSTSPKQKLSSPEADKGPEEEENKVLARKQKMRTVFSQAQLCALKDRFQKQKYLSLQQMQELSSILNLSYKQVKTWFQNQRMKCKRWQKNQWLKTSNGLIQKGSAPVEYPSIHCSYPQGYLVNASGSLSMWGSQTWTNPTWSSQTWTNPTWNNQTWTNPTWSSQAWTAQSWNGQPWNAAPLHNFGEDFLQPYVQLQQNFSASDLEVNLEATRESHAHFSTPQALELFLNYSVTPPGEI
caspase-9
  cleavage by caspase-9: greatly diminished cleavage
Mouse ES cells
  number of undifferentiated (AP-positive) colonies: substantially increased
